The values that follow come from US20030036166A1.

Assay [1] addresses T1, ErbB4.Fc (UniProt Q15303).
T1 sequence (looked up): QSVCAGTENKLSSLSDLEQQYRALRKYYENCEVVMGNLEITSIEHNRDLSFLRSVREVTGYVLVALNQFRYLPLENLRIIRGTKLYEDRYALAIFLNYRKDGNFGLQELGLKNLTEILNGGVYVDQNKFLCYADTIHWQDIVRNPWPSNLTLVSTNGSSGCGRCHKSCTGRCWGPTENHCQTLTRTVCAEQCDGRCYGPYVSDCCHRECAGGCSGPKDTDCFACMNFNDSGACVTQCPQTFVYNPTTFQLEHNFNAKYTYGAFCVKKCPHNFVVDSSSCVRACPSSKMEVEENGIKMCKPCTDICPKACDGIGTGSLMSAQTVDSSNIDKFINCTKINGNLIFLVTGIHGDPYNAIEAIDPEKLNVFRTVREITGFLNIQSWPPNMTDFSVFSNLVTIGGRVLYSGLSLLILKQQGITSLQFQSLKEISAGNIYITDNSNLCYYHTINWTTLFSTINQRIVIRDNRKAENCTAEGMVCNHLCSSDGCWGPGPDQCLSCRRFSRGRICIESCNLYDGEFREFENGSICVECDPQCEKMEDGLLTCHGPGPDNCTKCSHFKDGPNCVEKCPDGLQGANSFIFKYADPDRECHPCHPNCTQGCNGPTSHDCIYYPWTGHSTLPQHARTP
Put plainly: displacement of ^125I-NRG3^EGF.Fc (80 pM) from immobilized ErbB4.Fc by NRG1^EGF, 96-well plate, nonlinear regression.

The target in assay [2] is T1, ErbB4.Fc. Nature of the assay: displacement of ^125I-NRG3^EGF.Fc (80 pM) from immobilized ErbB4.Fc by unlabeled NRG3^EGF.Fc, 96-well plate, nonlinear regression.

Chain of NRG3^EGF.Fc (O35181 284-344 limits assumed): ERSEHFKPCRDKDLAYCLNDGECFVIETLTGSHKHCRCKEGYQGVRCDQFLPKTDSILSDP

“NRG1^EGF (EGF-like domain of heregulin-β1, rHRGβ1 177-244) (from UniProt Q02297 177-244) (ligand)” gave an inhibitory constant (Ki) in assay [1] of 1 nM.
“NRG3^EGF.Fc (from UniProt O35181 284-344) (Fc fusion)”: the Ki in assay [2] was determined as 9 nM.
